Test [1] has as its system hES cells (CyT49; passage 35). Description: Differentiation of hES cells to definitive endoderm with activin A plus Wnt3a or GSK3 inhibitors, real-time quantitative PCR at 48 hours (Example 4). The class given is cell-based, human. To be noted: with 100 ng/mL activin A; Wnt3a 25, 50 or 75 ng/mL; GSK3 inhibitor No.15 at 10 nM; FIG. 6A-B. The protocol: Undifferentiated hES cells (CyT49; passage 35) were maintained substantially as described in Example 1 above. Ten hES cell culture plates were then differentiated in RPMI (Mediatech) supplemented with Glutamax, penicillin/streptomycin, and varying concentrations of defined FBS (HyClone). FBS concentrations were 0% for the first 24 h and 0.2% for the second 24 h. Additionally, 0.1% BSA (Invitrogen/Gibco) was added on the first day only. All plates received 100 ng/mL activin A for both days. […] Replicate samples were collected from each culture condition at 48 hours after differentiation commenced and analyzed for relative gene expression using real-time quantitative PCR.

Test [2] relates to hES cells (CyT49; passage 35). Description: Further differentiation to pancreatic endoderm and endocrine cells, real-time PCR at 10 days (Example 4). The class given is cell-based, human. To be noted: definitive endoderm produced using Wnt3a at 50 or 75 ng/ml or GXV at 10 nM, FIG. 7. As to the method: Human ES cell cultures were maintained and differentiated substantially as described above in Example 1, and further differentiated to foregut endoderm (stage 2) and then onto pancreatic endoderm and pancreatic endocrine cells (stages 3 and 4). After 48 hours of differentiation to definitive endoderm (stage 1) the cells were briefly washed in PBS+/+ and then further differentiated in RPMI supplemented with 0.2% FBS, Insulin-Transferrin-Selenium (1:1000), Glutamax, penicillin/streptomycin, and 25 ng/mL KGF (R&D Systems) for 3 days. On the first day of stage 2, the culture also received TGF-beta inhibitor No. 4 (3-(6-Methylpyridin-2-yl)-4-(4-quinolyl)-1-phenylthiocarbamoyl-1H-pyrazole) at 2.5 uM (EMD Bioscience). After three days in stage 2 the cells were then differentiated for one day in DMEM with B27 supplement (1:100) containing all-trans retinoic acid (RA) at 0.2 uM and KAAD-cyclopamine at 0.25 uM. Following the single day of retinoid exposure, the cells were cultured in DMEM with B27 (1:100) containing noggin at 40 ng/ml. […]
However, in this instance, the stage 4 noggin treatment lasted for 4 days, as compared to 3 days in Example 2, and replicate samples were taken for real-time PCR analysis at a total of 10 days of differentiation, as compared to 9 days in Example 2.
On the technique in general: Real-time PCR tracks product formation cycle by cycle.

B1: Wnt3a: Wnt protein (R&D Systems) activating the Wnt signaling pathway (protein, UniProt P56704 19-352, looked up)
Protein Wnt-3a: SYPIWWSLAVGPQYSSLGSQPILCASIPGLVPKQLRFCRNYVEIMPSVAEGIKIGIQECQHQFRGRRWNCTTVHDSLAIFGPVLDKATRESAFVHAIASAGVAFAVTRSCAEGTAAICGCSSRHQGSPGKGWKWGGCSEDIEFGGMVSREFADARENRPDARSAMNRHNNEAGRQAIASHMHLKCKCHGLSGSCEVKTCWWSQPDFRAIGDFLKDKYDSASEMVVEKHRESRGWVETLRPRYTYFKVPTERDLVYYEASPNFCEPNPETGSFGTRDRTCNVSSHGIDGCDLLCCGRGHNARAERRREKCRCVFHWCCYVSCQECTRVYDVHTCK
As to B1, in test [1], the “expression levels of SOX17 and FOXA2 at 48 hours of differentiation as compared to the other GSK inhibitors” value is “substantially higher”. In addition, the “abundance of pancreatic endoderm and endocrine cell types (PDX1, PTF1A, NKX6-1 and NKX2-2 induction)” value in test [2] is recorded as “much greater abundance”.

The values above are taken from patent publication US20090298178A1, “GROWTH FACTORS FOR PRODUCTION OF DEFINITIVE ENDODERM” (priority 2008, published 2009).
